Measurements from PMC8041869.

How the values were obtained:
[1] = molecular target: SARS-CoV-2 S-protein receptor-binding domain (SARS-CoV-2) (UniProt P0DTC2); assay: ELISA
[2] = molecular target: SARS-CoV-2 S-protein receptor-binding domain (SARS-CoV-2) (UniProt P0DTC2); assay: BLI

With “human ACE2 extracellular domain, E37K variant, Fc-tagged dimeric form (from UniProt Q9BYF1-1 18-615) (Fc fusion)” the EC50 [1] was 0.0158 µM and the Kd [2] was 0.0227 µM.
